From US20200182882A1

Tests used:
[1] = molecular target: CD3 (TCR complex subunit) on T cells (Jurkat reporter cells; human PBMC T cells) (human) (UniProt P07766); test: cell-based or functional assay
[2] = molecular target: T1, CD20 on a CD20 expressing target cell line (Wil2-S) (UniProt P11836); test: cell-based or functional assay
T1 sequence (looked up): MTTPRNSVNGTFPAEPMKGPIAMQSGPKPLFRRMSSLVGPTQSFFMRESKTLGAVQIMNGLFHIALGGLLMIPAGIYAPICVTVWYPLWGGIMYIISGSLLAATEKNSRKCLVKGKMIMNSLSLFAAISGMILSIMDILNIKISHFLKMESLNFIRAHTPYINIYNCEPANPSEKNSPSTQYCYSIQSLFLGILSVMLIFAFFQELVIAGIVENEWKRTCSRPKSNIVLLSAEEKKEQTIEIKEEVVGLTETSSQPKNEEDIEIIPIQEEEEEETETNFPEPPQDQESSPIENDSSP

Chain of UniProt P07766 (P07766 23-207, one chain of several): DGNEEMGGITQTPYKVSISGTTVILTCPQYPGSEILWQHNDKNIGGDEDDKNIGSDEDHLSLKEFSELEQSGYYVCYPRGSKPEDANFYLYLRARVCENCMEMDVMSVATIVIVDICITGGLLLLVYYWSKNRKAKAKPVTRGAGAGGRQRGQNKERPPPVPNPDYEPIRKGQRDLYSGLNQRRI

EC50 of T cell activation (CD69+/CD25+), Human PBMC Donor 1, in presence of target cells [1]: 5.5 ng/mL
EC50 of T cell activation (CD69+/CD25+), Human PBMC Donor 2, in presence of target cells [1]: 4.4 ng/mL
EC50 of luciferase reporter activity, Jurkat/NFκBLuc, in presence of target cells [1]: 1.3 ng/mL
luciferase activity of Jurkat/NFκBLuciferase clone 2 in the presence of a CD20 expressing target cell line, against anti-CD3 homodimer [1]: 1000 fold
EC50 of T cell activation (CD69+/CD25+), Human PBMC Donor 1, in presence of target cells [2]: 5.5 ng/mL
EC50 of T cell activation (CD69+/CD25+), Human PBMC Donor 2, in presence of target cells [2]: 4.4 ng/mL
EC50 of luciferase reporter activity, Jurkat/NFκBLuc, in presence of target cells [2]: 1.3 ng/mL
B1: αCD20/αCD3 TDB (bispecific antibody, from a related filing, V domains shown)
VH 1: EVQLVESGGGLVQPGGSLRLSCAASGYTFTSYNMHWVRQAPGKGLEWVGAIYPGNGDTSYNQKFKGRFTISVDKSKNTLYLQMNSLRAEDTAVYYCARVVYYSNSYWYFDVWGQGTLVTVSS
VL 1: DIQMTQSPSSLSASVGDRVTITCRASSSVSYMHWYQQKPGKAPKPLIYAPSNLASGVPSRFSGSGSGTDFTLTISSLQPEDFATYYCQQWSFNPPTFGQGTKVEIKR
VH 2: EVQLVQSGAEVKKPGASVKVSCKASGYTFTNYYIHWVRQAPGQGLEWIGWIYPGDGNTKYNEKFKGRATLTADTSTSTAYLELSSLRSEDTAVYYCARDSYSNYYFDYWGQGTLVTVSS
VL 2: DIVMTQSPDSLAVSLGERATINCKSSQSLLNSRTRKNYLAWYQQKPGQPPKLLIYWASTRESGVPDRFSGSGSGTDFTLTISSLQAEDVAVYYCTQSFILRTFGQGTKVEIK
